Reference: patent US20050233313

Tested on: β-galactosidase substrate with a cleavage cassette (decapeptide corresponding to an HIV protease cleavage site) inserted into its open reading frame [β-galactosidase: P00722]
Sequence (P00722 2-1024): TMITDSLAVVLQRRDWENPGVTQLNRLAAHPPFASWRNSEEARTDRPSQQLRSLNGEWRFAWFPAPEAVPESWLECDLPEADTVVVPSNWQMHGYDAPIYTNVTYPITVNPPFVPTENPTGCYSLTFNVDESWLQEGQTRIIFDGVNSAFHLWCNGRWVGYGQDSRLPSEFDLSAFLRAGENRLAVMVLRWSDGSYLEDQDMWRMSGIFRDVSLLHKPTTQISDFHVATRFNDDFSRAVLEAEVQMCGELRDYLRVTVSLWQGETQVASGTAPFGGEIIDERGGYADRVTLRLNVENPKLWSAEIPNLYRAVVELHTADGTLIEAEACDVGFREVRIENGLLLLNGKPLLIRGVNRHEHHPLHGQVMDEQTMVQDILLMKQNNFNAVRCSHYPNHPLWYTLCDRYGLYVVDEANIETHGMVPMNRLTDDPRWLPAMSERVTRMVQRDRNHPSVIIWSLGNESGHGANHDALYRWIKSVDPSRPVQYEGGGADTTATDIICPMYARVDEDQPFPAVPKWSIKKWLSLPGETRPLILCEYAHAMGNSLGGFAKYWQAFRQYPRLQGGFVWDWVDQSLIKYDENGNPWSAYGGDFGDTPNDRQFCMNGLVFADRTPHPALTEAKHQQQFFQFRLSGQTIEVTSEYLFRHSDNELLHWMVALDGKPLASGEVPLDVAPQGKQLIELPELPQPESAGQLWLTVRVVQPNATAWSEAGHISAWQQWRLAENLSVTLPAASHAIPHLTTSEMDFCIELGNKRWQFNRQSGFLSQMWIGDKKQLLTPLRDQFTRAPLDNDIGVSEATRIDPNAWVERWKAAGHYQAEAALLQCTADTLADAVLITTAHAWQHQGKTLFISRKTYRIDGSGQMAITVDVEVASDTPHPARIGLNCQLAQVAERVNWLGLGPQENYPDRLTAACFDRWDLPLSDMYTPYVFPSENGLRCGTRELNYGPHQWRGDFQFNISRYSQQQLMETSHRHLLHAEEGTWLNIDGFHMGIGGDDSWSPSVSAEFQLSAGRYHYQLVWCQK

Substance	% Cleavage
HIV-1 protease T96A (99 residues, HXB2) expressed from pMono	14%
HIV-1 protease I3A (99 residues, HXB2) expressed from pMono	0%
HIV-1 protease Q2A (99 residues, HXB2) expressed from pMono	96%
HIV-1 protease P1A (99 residues, HXB2) expressed from pMono	92%
HIV-1 protease N98A (99 residues, HXB2) expressed from pMono	68%
HIV-1 protease T4A (99 residues, HXB2) expressed from pMono	96%
HIV-1 protease F99A (99 residues, HXB2) expressed from pMono	0%
HIV-1 protease L97A (99 residues, HXB2) expressed from pMono	0%
HIV-1 protease D25A (99 residues, HXB2) expressed from pMono	0%
